In patent US20220354938A1:

Target: C2 epitope-peptide (…, SEQ ID NO:21) / human HLA-A2 MHC class I molecule complex on the cell surface (human; human CMV)

“TCR CMV-pp65-PE STAR™ multimer reagent (Altor Bioscience Corp., Miramar, Fla., U.S.)” was tested, and the iMFI was 10100 RFU and the percentage of pMHC I complex presenting cells was 35%.
